Measurements reported in patent US7994123B2, “Hybrid proteins with ErbB4 extracellular domain and neuregulin heparin-binding domain for targeting” (Wayne State University, priority 2004, dated 2011).
One block for each molecule: values may come before it.

Columns and labels:
[1] = test system: erbB receptor phosphorylation (p185) in L6 cells; test: L6 assay: block of NRG-induced erbB receptor phosphorylation (p185); type: cell-based
Description: (§1) 4. Cell culture: The L6 cells were cultured in DMEM supplemented with 10% fetal calf serum, 1 mM L-glutamine and 1000 U/ml penicillin/streptomycin at 37° C. in 10% CO2 incubator. The HEK293 cells were cultured in DMEM with 10% fetal calf serum, 1 mM L-glutamine, 2 mM sodium pyruvate, 0.1 mM non-essential amino acids, 1000 U/ml penicillin/streptomycin at 37° C. in 10% CO2 incubator. The selective antibiotics Geneticin 200 μg/ml (Gibco-Invitrogen) was added to the cell cultures of stably transfected HEK293 cells harboring the NRG antagonists. 5. Stable expression of NRG antagonists in HEK293 cells: HEK293 cells were cultured in […] flasks to 80% confluence and transfected with the four NRG antagonist constructs using lipofectamine 2000 (Invitrogen Life Science) as instructed. The antibiotic Geneticin was then added at a concentration of 400 μg/ml to the transfected HEK293 cells to select the positive antagonist transfected cells. After three weeks of Geneticin selection, the transfected HEK293 cells were diluted and plated in 96 well plates to yield single positive clones. The single clones that expressed the highest levels of antagonists (confirmed by western blot using HA antibody) were then maintained in culture media with 200 μg/ml Geneticin. Optimem I (Gibco-Invitrogen) was applied to the stably transfected NRG antagonist cell lines at 37° C. in 10% CO2 incubator for 2 days. The conditioned Optimem I media was then used in the following experiments. 6. Heparin column binding: The conditioned media containing the four NRG antagonists was passed through the heparin column to allow binding to heparin. The excessive unbound antagonist proteins were washed off by 1×PBS twice. The antagonist proteins were then eluted by increasing concentration of NaCl (0.25, 0.3, 0.4, 0.5, 0.6 and 1M). The flow through solution from each step was examined by anti-HA western blots, as described later, to determine heparin binding ability of the antagonists. 7. Purification and quantitation of recombinant proteins: The NRG antagonists were purified by anti-HA affinity matrix (3F10) (rat mAb) according to manufacturer's instructions. Briefly, the column was equilibrated with buffer containing 20 mM Tris pH 7.5, 0.1 M NaCl, 0.1 M EDTA, and each antagonist in conditioned medium was applied individually to the anti-HA affinity matrix. Excess unbound antagonist proteins were washed with 20 volume of washing buffer (20 mM Tris pH 7.5, 0.1 M NaCl, 0.1 M EDTA and 0.05% Tween 20). The bound NRG antagonists were eluted with 0.1 M glycine (pH 2). The purified recombinant protein was then quantified using a BioRad Protein Assay kit (Bio-Rad, Hercules, Calif.) 8. Silver stain: Both the conditioned media and the purified NRG antagonists were resolved on 7.5% reducing SDS-polyacrylamide gels. The gel was fixed with 30% ethanol and 10% acetic acid for 30 min. 10% ethanol and ultrapure water were used subsequently to wash the gel before staining with SilverSNAP stain solution with enhancer for 30 min. The gel was then developed using SilverSNAP developer solution with enhancer. 5% acetic acid was used to stop the reaction when the desired band intensity was reached. The gel was dried on filter paper using a vacuum gel dyer. 9. […] Positive control L6 cells were treated with 50 pM NRG alone. L6 cell lysates were prepared and run on 5% SDS-PAGE gel. Western blots of erbB receptor phosphorylation were performed using 4G10 antibody. 10. Western blot: Western blots were performed on both conditioned NRG antagonist media and the antagonist-treated L6 cells. The antagonist proteins and the L6 cells were solubilized in SDS sample buffer and boiled for 5 min as described above (see also Li et al., supra). The NRG antagonists run on 7.5% SDS-PAGE gel were detected by anti-HA mAb HA.11. Phosphotyrosine mAb 4G10 was used to detect phosphorylated erbB receptor (p185) in L6 cell western blot analysis following resolution on overrun 5% reducing SDS-polyacrylamide gels. […]

Heparin column binding = test: Heparin column binding
Description: as §1

B1: B4: purified His-tagged erbB4 extracellular domain lacking the HBD (protein)
chain: VCAGTENKLSSLSDLEQQYRALRKYYENCEVVMGNLEITSIEHNRDLSFLRSVREVTGYVLVALNQFRYLPLENLRIIRGTKLYEDRYALAIFLNYRKDGNFGLQELGLKNLTEILNGGVYVDQNKFLCYADTIHWQDIVRNPWPSNLTLVSTNGSSGCGRCHKSCTGRCWGPTENHCQTLTRTVCAEQCDGRCYGPYVSDCCHRECAGGCSGPKDTDCFACMNFNDSGACVTQCPQTFVYNPTTFQLEHNFNAKYTYGAFCVKKCPHNFVVDSSSCVRACPSSKMEVEENGIKMCKPCTDICPKACDGIGTGSLMSAQTVDSSNIDKFINCTKINGNLIFLVTGIHGDPYNAIEAIDPEKLNVFRTVREITGFLNIQSWPPNMTDFSVFSNLVTIGGRVLYSGLSLLILKQQGITSLQFQSLKEISAGNIYITDNSNLCYYHTINWTTLFSTINQRIVIRDNRKAENCTAEGMVCNHLCSSDGCWGPGPDQCLSCRRFSRGRICIESCNLYDGEFREFENGSICVECDPQCEKMEDGLLTCHGPGPDNCTKCSHFKDGPNCVEKCPDGLQGANSFIFKYADPDRECHPCHPNCTQGCNGPTSHDCIYYPWTGHSTLPQHAKN
modifications: left off: small tags and cut ends
notes: purified His-tagged erbB4 extracellular domain lacking the HBD
sustained blockade of neuregulin signaling (p185 phosphorylation) ([1]; preincubated with L6 muscle cells one hour, thoroughly washed before adding recombinant neuregulin): no sustained effects

binding to heparin column (Heparin column binding; conditioned media, anti-HA western blot of flow through and elution): bound the heparin column | NaCl concentration needed to elute from heparin column (Heparin column binding; elution with increasing NaCl (0.25-1 M)): 0.4 to 0.5 M
B2: B4-HBD-HA: fusion polypeptide: erbB4 extracellular domain with NRG heparin-binding domain C-terminal, HA tag (protein)
chain: VCAGTENKLSSLSDLEQQYRALRKYYENCEVVMGNLEITSIEHNRDLSFLRSVREVTGYVLVALNQFRYLPLENLRIIRGTKLYEDRYALAIFLNYRKDGNFGLQELGLKNLTEILNGGVYVDQNKFLCYADTIHWQDIVRNPWPSNLTLVSTNGSSGCGRCHKSCTGRCWGPTENHCQTLTRTVCAEQCDGRCYGPYVSDCCHRECAGGCSGPKDTDCFACMNFNDSGACVTQCPQTFVYNPTTFQLEHNFNAKYTYGAFCVKKCPHNFVVDSSSCVRACPSSKMEVEENGIKMCKPCTDICPKACDGIGTGSLMSAQTVDSSNIDKFINCTKINGNLIFLVTGIHGDPYNAIEAIDPEKLNVFRTVREITGFLNIQSWPPNMTDFSVFSNLVTIGGRVLYSGLSLLILKQQGITSLQFQSLKEISAGNIYITDNSNLCYYHTINWTTLFSTINQRIVIRDNRKAENCTAEGMVCNHLCSSDGCWGPGPDQCLSCRRFSRGRICIESCNLYDGEFREFENGSICVECDPQCEKMEDGLLTCHGPGPDNCTKCSHFKDGPNCVEKCPDGLQGANSFIFKYADPDRECHPCHPNCTQGCNGPTSHDCIYYPWTGHSTLPQHAKNSAAGSQSPALPPRLKEMKSQESAAGSKLVLRCETSSEYSSLRFKWFKNGNELNRKNKPQNIKIQKKPGKSELRINKASLADSGEYMCKVISKLGNDSASANITIVE
modifications: left off: small tags and cut ends
effect on NRG-induced p185 erbB receptor phosphorylation ([1]; comparable amounts of antagonist with 50 pM NRG (IG-EGF form), 45 min): dramatically reduced erbB receptor activation
